Data as given in paper PMC11530556.

Target: full-length Titin N2B unique sequence (N2B-us) single-molecule construct, 6His-Avi-2I27-N2B-2I27-Spy (human)
Assay: magnetic tweezers single-molecule manipulation; full-length N2B-us tether; jump to 8 pN procedure: 1 pN for 10 s, 8 pN for 20 s, back to 1 pN; bead height difference at 1 pN; 200 nM FHL2; five tethers

Sequence of full-length Titin N2B unique sequence (N2B-us) single-molecule construct, 6His-Avi-2I27-N2B-2I27-Spy (human) (Q8WZ42 3717-4288): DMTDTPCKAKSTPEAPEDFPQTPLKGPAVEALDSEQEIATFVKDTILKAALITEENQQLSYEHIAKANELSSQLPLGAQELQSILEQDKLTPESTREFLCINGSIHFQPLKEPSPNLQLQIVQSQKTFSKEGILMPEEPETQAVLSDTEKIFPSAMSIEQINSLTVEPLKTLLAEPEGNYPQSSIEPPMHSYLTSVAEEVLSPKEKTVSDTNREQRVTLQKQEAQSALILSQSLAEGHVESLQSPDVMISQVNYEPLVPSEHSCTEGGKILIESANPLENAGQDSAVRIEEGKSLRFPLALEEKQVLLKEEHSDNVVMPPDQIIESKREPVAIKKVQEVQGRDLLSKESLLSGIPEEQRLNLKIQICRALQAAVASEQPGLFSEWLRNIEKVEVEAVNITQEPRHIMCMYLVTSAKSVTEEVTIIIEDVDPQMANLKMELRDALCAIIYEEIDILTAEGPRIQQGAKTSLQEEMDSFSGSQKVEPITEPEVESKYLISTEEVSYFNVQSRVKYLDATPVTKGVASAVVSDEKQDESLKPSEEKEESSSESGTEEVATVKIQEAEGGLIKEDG

An average extension difference at 1 pN before and after 20 s at 8 pN, with 200 nM FHL2 of 10 nm was found for “Recombinant GST-FHL2 protein (four-and-a-half LIM domain protein 2) (natural protein)” in this work.
